# Columns and labels:
# human CD47 = target: T1, human CD47 (human, UniProt Q08722 19-139); experiment: SPR (Proteon GLC chip), CD47 immobilised by amine coupling, construct injected as analyte in the first injection (100 nM per paragraph 377)
# T1 construct: extracellular domain; also called CD47 ECD
# [1] = target: T2, EGFR-ECD (epidermal growth factor receptor extracellular domain produced in HEK293 cells) (UniProt P00533 25-645, limits assumed); experiment: SPR (Proteon GLC chip), EGFR-ECD injected in the second injection over construct B bound to immobilised CD47
# T2 construct: extracellular domain
# [2] = target: T2, EGFR-ECD (epidermal growth factor …); experiment: SPR (Proteon GLC chip), EGFR-ECD injected in the second injection over construct C bound to immobilised CD47
# T1 sequence (Q08722 19-139 limits assumed): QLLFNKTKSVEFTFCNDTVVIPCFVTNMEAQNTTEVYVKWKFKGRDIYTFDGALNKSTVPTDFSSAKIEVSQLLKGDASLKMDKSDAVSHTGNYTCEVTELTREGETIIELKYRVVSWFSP
binding result (human CD47),binding result [1],binding result [2],Binder
binds,no binding,–,"single-arm SIRP-α-Fc fusion, heterodimer of SEQ ID NO: 139 (an Fc variant) and SEQ ID NO: 142 (a SIRP-α-Fc fusion) (Fc fusion, knob and hole heterodimer) chain 1: EEELQIIQPDKSVLVAAGETATLRCTITSLFPVGPIQWFRGAGPGRELIYNQREGPFPRVTTVSDTTKRNNMDFSIRIGAITPADAGTYYCVKFRKGSPDDVEFKSGAGTELSVRAKPSDKTHTCPPCPAPEAAGAPSVFLFPPKPKDTLMISRTPEVTCVVVDVSHEDPEVKFNWYVDGVEVHNAKTKPREEQYASTYRVVSVLTVLHQDWLNGKEYKCKVSNKALPAPIEKTISKAKGQPREPQVYTLPPSREEMTKNQVSLWCLVKGFYPSDIAVEWESNGQPENNYKTTPPVLDSDGSFFLYSKLTVDKSRWQQGNVFSCSVMHEALHNHYTQKSLSLSPGK chain 2: DKTHTCPPCPAPEAAGAPSVFLFPPKPKDTLMISRTPEVTCVVVDVSHEDPEVKFNWYVDGVEVHNAKTKPREEQYASTYRVVSVLTVLHQDWLNGKEYKCKVSNKALPAPIEKTISKAKGQPREPQVYTLPPSREEMTKNQVSLSCAVKGFYPSDIAVEWESNGQPENNYKTTPPVLDSDGSFFLVSKLTVDKSRWQQGNVFSCSVMHEALHNHYTQKSLSLSPGK"
binds,–,no binding,"single-arm SIRP-α-Fc fusion, heterodimer of SEQ ID NO: 139 (an Fc variant) and SEQ ID NO: 138 (a SIRP-α Fc fusion) (Fc fusion, knob and hole heterodimer) chain 1: EEELQIIQPDKSVLVAAGETATLRCTITSLFPVGPIQWFRGAGPGRVLIYNQRQGPFPRVTTVSDTTKRNNMDFSIRIGAITPADAGTYYCIKFRKGSPDDVEFKSGAGTELSVRAKPSDKTHTCPPCPAPEAAGAPSVFLFPPKPKDTLMISRTPEVTCVVVDVSHEDPEVKFNWYVDGVEVHNAKTKPREEQYASTYRVVSVLTVLHQDWLNGKEYKCKVSNKALPAPIEKTISKAKGQPREPQVYTLPPSREEMTKNQVSLWCLVKGFYPSDIAVEWESNGQPENNYKTTPPVLDSDGSFFLYSKLTVDKSRWQQGNVFSCSVMHEALHNHYTQKSLSLSPGK chain 2: DKTHTCPPCPAPEAAGAPSVFLFPPKPKDTLMISRTPEVTCVVVDVSHEDPEVKFNWYVDGVEVHNAKTKPREEQYASTYRVVSVLTVLHQDWLNGKEYKCKVSNKALPAPIEKTISKAKGQPREPQVYTLPPSREEMTKNQVSLSCAVKGFYPSDIAVEWESNGQPENNYKTTPPVLDSDGSFFLVSKLTVDKSRWQQGNVFSCSVMHEALHNHYTQKSLSLSPGK"

# — patent US20200239543A1 (ALX ONCOLOGY, published 2020)
